Source: PMC6918743, “Mammalian TRP ion channels are insensitive to membrane stretch” (Journal of Cell Science, 2019)

Target: the molecule itself
Experiment: SEC; Superose 6 10/300 GL column; 150 mM NaCl, 20 mM HEPES, 2 mM TCEP (pH 7.4); DDM-mTRPC6 protein complex; peak assigned to the tetramer

Protein	stoichiometry N
Δ94 mTRPC6 (94 aa N-terminally truncated mouse TRPC6) (domain or fragment, UniProt Q61143 95-930, looked up, TRPC6, Mus musculus, N-terminal truncation of 94 aa (Δ94); The limit 95 follows from the printed '94 aa truncated' N-terminal truncation; Tags removed with ProTEV Plus protease; solubilised in DDM; also called Δ94 TRPC6; N-terminal truncation (Δ94) of TRPC6; source: Sf9 (baculovirus, Bac-to-Bac), purified (amylose resin, Superose 6); not shown: His8, N-terminal, cleaved; MBP, N-terminal, cleaved) SIEEERFLDAAEYGNIPVVRKMLEECHSLNVNCVDYMGQNALQLAVANEHLEITELLLKKENLSRVGDALLLAISKGYVRIVEAILNHPAFAEGKRLATSPSQSELQQDDFYAYDEDGTRFSHDVTPIILAAHCQEYEIVHTLLRKGARIERPHDYFCKCTECSQKQKHDSFSHSRSRINAYKGLASPAYLSLSSEDPVMTALELSNELAVLANIEKEFKNDYRKLSMQCKDFVVGLLDLCRNTEEVEAILNGDAETRQPGDFGRPNLSRLKLAIKYEVKKFVAHPNCQQQLLSIWYENLSGLRQQTMAVKFLVVLAVAIGLPFLALIYWCAPCSKMGKILRGPFMKFVAHAASFTIFLGLLVMNAADRFEGTKLLPNETSTDNARQLFRMKTSCFSWMEMLIISWVIGMIWAECKEIWTQGPKEYLFELWNMLDFGMLAIFAASFIARFMAFWHASKAQSIIDANDTLKDLTKVTLGDNVKYYNLARIKWDPTDPQIISEGLYAIAVVLSFSRIAYILPANESFGPLQISLGRTVKDIFKFMVIFIMVFVAFMIGMFNLYSYYIGAKQNEAFTTVEESFKTLFWAIFGLSEVKSVVINYNHKFIENIGYVLYGVYNVTMVIVLLNMLIAMINSSFQEIEDDADVEWKFARAKLWFSYFEEGRTLPVPFNLVPSPKSLLYLLLKFKKWMCELIQGQKQGFQEDAEMNKRNEEKKFGISGSHEDLSKFSLDKNQLAHNKQSSTRSSEDYHLNSFSNPPRQYQKIMKRLIKRYVLQAQIDKESDEVNEGELKEIKQDISSLRYELLEEKSQNTEDLAELIRKLGERLSLEPKLEESRR	4
mouse TRPC6, full-length (WT) protein (natural protein, UniProt Q61143 1-930, looked up, TRPC6, Mus musculus, full-length (WT) protein; Tags removed with ProTEV Plus protease; solubilised in DDM; also called mTRPC6; WT TRPC6; source: Sf9 (baculovirus, Bac-to-Bac), purified (amylose resin, Superose 6); not shown: His8, N-terminal, cleaved; MBP, N-terminal, cleaved) MSQSPRFVTRRGGSLKAAPGAGTRRNESQDYLLMDELGDDGYPQLPLPPYGYYPSFRGNENRLTHRRQTILREKGRRLANRGPAYMFNDHSTSLSIEEERFLDAAEYGNIPVVRKMLEECHSLNVNCVDYMGQNALQLAVANEHLEITELLLKKENLSRVGDALLLAISKGYVRIVEAILNHPAFAEGKRLATSPSQSELQQDDFYAYDEDGTRFSHDVTPIILAAHCQEYEIVHTLLRKGARIERPHDYFCKCTECSQKQKHDSFSHSRSRINAYKGLASPAYLSLSSEDPVMTALELSNELAVLANIEKEFKNDYRKLSMQCKDFVVGLLDLCRNTEEVEAILNGDAETRQPGDFGRPNLSRLKLAIKYEVKKFVAHPNCQQQLLSIWYENLSGLRQQTMAVKFLVVLAVAIGLPFLALIYWCAPCSKMGKILRGPFMKFVAHAASFTIFLGLLVMNAADRFEGTKLLPNETSTDNARQLFRMKTSCFSWMEMLIISWVIGMIWAECKEIWTQGPKEYLFELWNMLDFGMLAIFAASFIARFMAFWHASKAQSIIDANDTLKDLTKVTLGDNVKYYNLARIKWDPTDPQIISEGLYAIAVVLSFSRIAYILPANESFGPLQISLGRTVKDIFKFMVIFIMVFVAFMIGMFNLYSYYIGAKQNEAFTTVEESFKTLFWAIFGLSEVKSVVINYNHKFIENIGYVLYGVYNVTMVIVLLNMLIAMINSSFQEIEDDADVEWKFARAKLWFSYFEEGRTLPVPFNLVPSPKSLLYLLLKFKKWMCELIQGQKQGFQEDAEMNKRNEEKKFGISGSHEDLSKFSLDKNQLAHNKQSSTRSSEDYHLNSFSNPPRQYQKIMKRLIKRYVLQAQIDKESDEVNEGELKEIKQDISSLRYELLEEKSQNTEDLAELIRKLGERLSLEPKLEESRR	4
